From patent publication US20160200782A1
Each block holds one substance with its values, some of them ahead of it.

How the values were obtained:
Test in all cases: cell-based or functional assay
AMPKa2(h) (human) = AMPKa2(h) (human) (UniProt P54646)
Ab1(H396P)(h) (human) = Ab1(H396P)(h) (human) (UniProt P00519)
Ab1(T315I)(h) (human) = Ab1(T315I)(h) (human) (UniProt P00519)
BTK(h) (human) = BTK(h) (human) (UniProt Q06187)
BrSK1(h) (human) = BrSK1(h) (human) (UniProt Q8TDC3)
BrSK2(h) (human) = BrSK2(h) (human) (UniProt Q8IWQ3)
CDK6/cyclinD3(h) (human) = CDK6/cyclinD3(h) (human) (UniProt Q00534)
[1] = target: CDK9/cyclin T1(h) (human) (UniProt P50750)
CK1δ(h) (human) = CK1δ(h) (human) (UniProt P48730)
CaMKIIβ(h) (human) = CaMKIIβ(h) (human) (UniProt Q13554)
DYRK2(h) (human) = DYRK2(h) (human) (UniProt Q92630)
EGFR(L861Q)(h) (human) = EGFR(L861Q)(h) (human) (UniProt P00533)
EGFR(T790M)(h) (human) = EGFR(T790M)(h) (human) (UniProt P00533)
EphB2(h) (human) = EphB2(h) (human) (UniProt P29323)
FGFR1(h) (human) = FGFR1(h) (human) (UniProt P11362)
Flt3(D835Y)(h) (human) = Flt3(D835Y)(h) (human) (UniProt P36888)
HIPK1(h) (human) = HIPK1(h) (human) (UniProt Q86Z02)
Hck(h) activated (human) = Hck(h) activated (human) (UniProt P08631)
IR(h) (human) = IR(h) (human) (UniProt P06213)
IR(h), activated (human) = IR(h), activated (human) (UniProt P06213)
IRR(h) (human) = IRR(h) (human) (UniProt P14616)
JAK2(h) (human) = JAK2(h) (human) (UniProt O60674)
JNK3(h) (human) = JNK3(h) (human) (UniProt P53779)
KDR(h) (human) = KDR(h) (human) (UniProt P35968)
LIMK1(h) (human) = LIMK1(h) (human) (UniProt P53667)
MAPKAP-K3(h) (human) = MAPKAP-K3(h) (human) (UniProt Q16644)
MRCKα(h) (human) = MRCKα(h) (human) (UniProt Q5VT25)
MST1(h) (human) = MST1(h) (human) (UniProt Q13043)
MST3(h) (human) = MST3(h) (human) (UniProt Q9Y6E0)
Met(Y1248C)(h) (human) = Met(Y1248C)(h) (human) (UniProt P08581)
PASK(h) (human) = PASK(h) (human) (UniProt Q96RG2)
PDGFRα(D842V)(h) (human) = PDGFRα(D842V)(h) (human) (UniProt P16234)
PDGFRα(V561D)(h) (human) = PDGFRα(V561D)(h) (human) (UniProt P16234)
PDGFRα(h) (human) = PDGFRα(h) (human) (UniProt P16234)
PKBβ(h) (human) = PKBβ(h) (human) (UniProt P31751)
PKCβII(h) (human) = PKCβII(h) (human) (UniProt P05771)
PKCγ(h) (human) = PKCγ(h) (human) (UniProt P05129)
PKCδ(h) (human) = PKCδ(h) (human) (UniProt Q05655)
PKD2(h) (human) = PKD2(h) (human) (UniProt Q9BZL6)
PRAK(h) (human) = PRAK(h) (human) (UniProt Q8IW41)
PRK2(h) (human) = PRK2(h) (human) (UniProt Q16513)
PhKγ2(h) (human) = PhKγ2(h) (human) (UniProt P15735)
Pim-2(h) (human) = Pim-2(h) (human) (UniProt Q9P1W9)
PrKX(h) (human) = PrKX(h) (human) (UniProt P51817)
ROCK-I(h) (human) = ROCK-I(h) (human) (UniProt Q13464)
Ron(h) (human) = Ron(h) (human) (UniProt Q04912)
Rsk4(h) (human) = Rsk4(h) (human) (UniProt Q9UK32)
SAPK3(h) (human) = SAPK3(h) (human) (UniProt P53778)
SRPK1(h) (human) = SRPK1(h) (human) (UniProt Q96SB4)
Src(1-530)(h) (human) = Src(1-530)(h) (human) (UniProt P12931)
TBK1(h) (human) = TBK1(h) (human) (UniProt Q9UHD2)
Tie2(h) (human) = Tie2(h) (human) (UniProt Q02763)
TrkB(h) (human) = TrkB(h) (human) (UniProt Q16620)
ZAP-70(h) (human) = ZAP-70(h) (human) (UniProt P43403)
cKit(V560G)(h) (human) = cKit(V560G)(h) (human) (UniProt P10721)
mTOR(h) (human) = mTOR(h) (human) (UniProt P42345)
Sequence of mTOR(h) (human) (P42345 1362-2549 limits assumed): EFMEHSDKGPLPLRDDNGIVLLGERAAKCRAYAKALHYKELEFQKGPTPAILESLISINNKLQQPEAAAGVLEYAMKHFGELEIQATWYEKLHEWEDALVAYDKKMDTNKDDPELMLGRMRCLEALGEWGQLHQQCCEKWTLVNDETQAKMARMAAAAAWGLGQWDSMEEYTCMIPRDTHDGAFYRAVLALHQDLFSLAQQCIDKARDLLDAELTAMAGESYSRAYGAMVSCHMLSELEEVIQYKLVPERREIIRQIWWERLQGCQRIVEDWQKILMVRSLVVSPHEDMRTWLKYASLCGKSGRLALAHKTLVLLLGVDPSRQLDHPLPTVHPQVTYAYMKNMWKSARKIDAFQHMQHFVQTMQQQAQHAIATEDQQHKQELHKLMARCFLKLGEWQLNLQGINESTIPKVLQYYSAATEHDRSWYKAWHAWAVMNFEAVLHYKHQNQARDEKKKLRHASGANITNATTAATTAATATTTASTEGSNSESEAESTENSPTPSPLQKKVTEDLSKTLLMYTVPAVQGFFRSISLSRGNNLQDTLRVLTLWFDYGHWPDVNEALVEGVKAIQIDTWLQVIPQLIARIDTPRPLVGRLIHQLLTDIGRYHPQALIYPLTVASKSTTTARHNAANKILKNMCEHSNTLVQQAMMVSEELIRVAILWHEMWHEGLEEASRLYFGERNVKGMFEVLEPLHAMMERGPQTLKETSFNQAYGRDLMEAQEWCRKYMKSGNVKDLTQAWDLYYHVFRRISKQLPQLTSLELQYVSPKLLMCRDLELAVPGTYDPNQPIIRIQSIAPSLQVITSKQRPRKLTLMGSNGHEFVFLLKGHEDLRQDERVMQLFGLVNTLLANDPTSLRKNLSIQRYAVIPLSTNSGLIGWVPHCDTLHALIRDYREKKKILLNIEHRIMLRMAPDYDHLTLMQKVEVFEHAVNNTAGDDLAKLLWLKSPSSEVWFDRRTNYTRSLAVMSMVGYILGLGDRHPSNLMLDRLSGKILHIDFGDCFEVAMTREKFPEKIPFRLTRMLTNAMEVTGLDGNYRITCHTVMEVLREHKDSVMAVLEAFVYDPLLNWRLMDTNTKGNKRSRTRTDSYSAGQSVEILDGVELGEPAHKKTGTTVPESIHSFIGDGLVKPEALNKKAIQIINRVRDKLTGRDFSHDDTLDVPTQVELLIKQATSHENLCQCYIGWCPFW

Sequence of Ab1(H396P)(h) (human) (P00519 27-1130 H396P limits assumed): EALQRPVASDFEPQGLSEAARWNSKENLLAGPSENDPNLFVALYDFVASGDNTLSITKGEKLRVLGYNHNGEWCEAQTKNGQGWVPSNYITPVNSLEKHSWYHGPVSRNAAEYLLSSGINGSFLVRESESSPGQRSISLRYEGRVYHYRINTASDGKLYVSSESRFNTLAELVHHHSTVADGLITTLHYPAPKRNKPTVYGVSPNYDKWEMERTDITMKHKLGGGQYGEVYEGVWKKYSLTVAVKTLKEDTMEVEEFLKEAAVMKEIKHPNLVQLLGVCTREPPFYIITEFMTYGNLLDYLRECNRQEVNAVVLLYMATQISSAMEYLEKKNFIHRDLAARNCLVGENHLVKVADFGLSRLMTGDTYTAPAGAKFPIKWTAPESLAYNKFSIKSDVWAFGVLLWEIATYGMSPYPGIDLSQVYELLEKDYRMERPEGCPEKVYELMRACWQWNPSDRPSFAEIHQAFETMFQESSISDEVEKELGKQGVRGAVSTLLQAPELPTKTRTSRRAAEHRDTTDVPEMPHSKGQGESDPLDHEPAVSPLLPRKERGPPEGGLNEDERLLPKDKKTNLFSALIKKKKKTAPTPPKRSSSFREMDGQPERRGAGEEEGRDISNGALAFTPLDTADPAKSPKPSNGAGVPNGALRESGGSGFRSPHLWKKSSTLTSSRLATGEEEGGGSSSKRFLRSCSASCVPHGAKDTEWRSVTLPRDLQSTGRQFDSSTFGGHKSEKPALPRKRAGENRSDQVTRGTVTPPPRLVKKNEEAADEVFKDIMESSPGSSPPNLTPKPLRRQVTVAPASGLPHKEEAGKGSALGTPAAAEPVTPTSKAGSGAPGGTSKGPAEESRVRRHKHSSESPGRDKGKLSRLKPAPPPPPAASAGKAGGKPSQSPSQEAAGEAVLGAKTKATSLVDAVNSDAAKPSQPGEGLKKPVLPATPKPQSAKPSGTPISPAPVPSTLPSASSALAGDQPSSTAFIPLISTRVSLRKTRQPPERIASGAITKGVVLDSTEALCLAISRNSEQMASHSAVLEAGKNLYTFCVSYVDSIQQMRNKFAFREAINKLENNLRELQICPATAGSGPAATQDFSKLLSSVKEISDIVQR
Sequence of CDK9/cyclin T1(h) (human) (P50750 whole entry, chain 1 of 2): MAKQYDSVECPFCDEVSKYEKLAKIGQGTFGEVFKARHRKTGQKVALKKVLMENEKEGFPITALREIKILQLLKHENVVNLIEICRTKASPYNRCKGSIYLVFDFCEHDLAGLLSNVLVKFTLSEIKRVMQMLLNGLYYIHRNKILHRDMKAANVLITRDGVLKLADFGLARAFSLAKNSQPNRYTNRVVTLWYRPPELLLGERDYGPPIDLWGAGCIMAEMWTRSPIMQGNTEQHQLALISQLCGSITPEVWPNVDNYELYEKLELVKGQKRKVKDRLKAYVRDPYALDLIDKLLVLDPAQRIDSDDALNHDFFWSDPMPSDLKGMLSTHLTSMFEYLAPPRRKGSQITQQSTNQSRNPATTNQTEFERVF
Sequence of CDK9/cyclin T1(h) (human) (O60563 whole entry, chain 2 of 2, further chain): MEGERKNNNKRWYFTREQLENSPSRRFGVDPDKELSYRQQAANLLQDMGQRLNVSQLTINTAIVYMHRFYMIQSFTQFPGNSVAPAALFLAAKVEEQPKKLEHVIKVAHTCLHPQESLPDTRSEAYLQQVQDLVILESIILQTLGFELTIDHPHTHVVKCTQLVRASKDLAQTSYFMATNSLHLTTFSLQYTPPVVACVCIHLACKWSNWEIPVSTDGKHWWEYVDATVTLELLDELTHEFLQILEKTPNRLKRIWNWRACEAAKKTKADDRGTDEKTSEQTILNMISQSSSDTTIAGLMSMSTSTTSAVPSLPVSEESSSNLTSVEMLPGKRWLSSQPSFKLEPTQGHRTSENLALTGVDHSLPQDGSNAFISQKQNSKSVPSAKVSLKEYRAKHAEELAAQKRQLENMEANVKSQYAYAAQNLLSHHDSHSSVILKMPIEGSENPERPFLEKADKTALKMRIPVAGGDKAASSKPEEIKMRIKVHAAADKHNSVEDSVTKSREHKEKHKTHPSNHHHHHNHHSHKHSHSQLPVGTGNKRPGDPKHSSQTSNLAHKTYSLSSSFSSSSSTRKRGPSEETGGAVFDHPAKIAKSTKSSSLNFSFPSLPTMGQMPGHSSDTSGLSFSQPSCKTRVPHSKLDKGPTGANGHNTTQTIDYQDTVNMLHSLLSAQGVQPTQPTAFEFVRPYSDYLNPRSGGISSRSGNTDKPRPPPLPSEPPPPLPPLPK
Sequence of BTK(h) (human) (Q06187 whole entry): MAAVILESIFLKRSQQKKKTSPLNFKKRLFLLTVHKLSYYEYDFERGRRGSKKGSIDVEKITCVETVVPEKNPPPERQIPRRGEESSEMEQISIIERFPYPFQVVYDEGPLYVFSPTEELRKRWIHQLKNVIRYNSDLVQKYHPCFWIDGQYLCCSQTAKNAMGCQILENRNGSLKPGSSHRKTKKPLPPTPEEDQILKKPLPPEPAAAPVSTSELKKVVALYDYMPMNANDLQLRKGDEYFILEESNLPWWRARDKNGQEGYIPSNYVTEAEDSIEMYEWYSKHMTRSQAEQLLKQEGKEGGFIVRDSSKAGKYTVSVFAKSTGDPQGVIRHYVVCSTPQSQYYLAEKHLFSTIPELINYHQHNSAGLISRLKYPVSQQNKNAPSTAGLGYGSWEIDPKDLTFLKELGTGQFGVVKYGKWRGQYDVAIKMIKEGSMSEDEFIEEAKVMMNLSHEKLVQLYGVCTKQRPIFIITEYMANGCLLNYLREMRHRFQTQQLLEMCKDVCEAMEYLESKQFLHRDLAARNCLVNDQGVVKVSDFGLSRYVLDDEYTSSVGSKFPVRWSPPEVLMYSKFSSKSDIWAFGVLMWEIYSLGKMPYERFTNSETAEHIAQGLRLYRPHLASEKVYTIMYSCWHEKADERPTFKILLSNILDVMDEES
Sequence of ROCK-I(h) (human) (Q13464 17-535 limits assumed): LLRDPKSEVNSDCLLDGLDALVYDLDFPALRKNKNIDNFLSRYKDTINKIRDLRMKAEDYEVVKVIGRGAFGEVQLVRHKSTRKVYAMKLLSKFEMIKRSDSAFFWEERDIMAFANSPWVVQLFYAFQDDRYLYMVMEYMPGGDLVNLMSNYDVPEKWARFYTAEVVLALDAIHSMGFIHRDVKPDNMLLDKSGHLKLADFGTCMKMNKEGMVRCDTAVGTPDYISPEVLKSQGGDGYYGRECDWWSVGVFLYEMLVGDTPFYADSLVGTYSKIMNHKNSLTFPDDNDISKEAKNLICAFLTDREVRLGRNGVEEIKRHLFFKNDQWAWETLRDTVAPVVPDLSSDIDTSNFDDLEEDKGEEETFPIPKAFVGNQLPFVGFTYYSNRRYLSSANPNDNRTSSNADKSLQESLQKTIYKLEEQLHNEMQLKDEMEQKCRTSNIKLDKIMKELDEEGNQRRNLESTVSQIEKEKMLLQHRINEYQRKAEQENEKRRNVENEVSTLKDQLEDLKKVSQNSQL
Sequence of MRCKα(h) (human) (Q5VT25 1-473 limits assumed): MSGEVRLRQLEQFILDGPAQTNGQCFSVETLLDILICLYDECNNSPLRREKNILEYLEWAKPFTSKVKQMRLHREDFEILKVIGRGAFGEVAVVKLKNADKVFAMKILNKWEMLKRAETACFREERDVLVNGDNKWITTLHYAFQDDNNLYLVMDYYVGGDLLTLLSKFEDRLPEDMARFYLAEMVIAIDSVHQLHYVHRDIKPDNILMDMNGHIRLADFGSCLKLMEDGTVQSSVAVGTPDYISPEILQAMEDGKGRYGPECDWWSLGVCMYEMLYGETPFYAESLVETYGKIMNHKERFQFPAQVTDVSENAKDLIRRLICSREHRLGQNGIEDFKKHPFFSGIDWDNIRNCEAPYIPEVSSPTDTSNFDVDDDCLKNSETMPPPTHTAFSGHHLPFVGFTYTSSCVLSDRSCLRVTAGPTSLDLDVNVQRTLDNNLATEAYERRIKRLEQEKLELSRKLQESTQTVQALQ

Substance: MMI-0200 (peptide)
% activity (AMPKa2(h) (human)): 88% | % activity (Ab1(H396P)(h) (human)): 121% | % activity (Ab1(T315I)(h) (human)): 108% | % activity (BTK(h) (human)): 100% | % activity (BrSK1(h) (human)): 93% | % activity (BrSK2(h) (human)): 102% | % activity (CDK6/cyclinD3(h) (human)): 100% | % activity [1]: 103% | % activity (CK1δ(h) (human)): 92% | % activity (CaMKIIβ(h) (human)): 53% | % activity (DYRK2(h) (human)): 142% | % activity (EGFR(L861Q)(h) (human)): 74% | % activity (EGFR(T790M)(h) (human)): 113% | % activity (EphB2(h) (human)): 128% | % activity (FGFR1(h) (human)): 97% | % activity (Flt3(D835Y)(h) (human)): 115% | % activity (HIPK1(h) (human)): 115% | % activity (Hck(h) activated (human)): 100% | % activity (IR(h) (human)): 90% | % activity (IR(h), activated (human)): 105% | % activity (IRR(h) (human)): 69% | % activity (JAK2(h) (human)): 131% | % activity (JNK3(h) (human)): 90% | % activity (KDR(h) (human)): 110% | % activity (LIMK1(h) (human)): 109% | % activity (MAPKAP-K3(h) (human)): 39% | % activity (MRCKα(h) (human)): 103% | % activity (MST1(h) (human)): 72% | % activity (MST3(h) (human)): 95% | % activity (Met(Y1248C)(h) (human)): 141% | % activity (PASK(h) (human)): 60% | % activity (PDGFRα(D842V)(h) (human)): 107% | % activity (PDGFRα(V561D)(h) (human)): 106% | % activity (PDGFRα(h) (human)): 108% | % activity (PKBβ(h) (human)): 250% | % activity (PKCβII(h) (human)): 100% | % activity (PKCγ(h) (human)): 101% | % activity (PKCδ(h) (human)): 101% | % activity (PKD2(h) (human)): 78% | % activity (PRAK(h) (human)): 115% | % activity (PRK2(h) (human)): 74% | % activity (PhKγ2(h) (human)): 86% | % activity (Pim-2(h) (human)): 74% | % activity (PrKX(h) (human)): 112% | % activity (ROCK-I(h) (human)): 117% | % activity (Ron(h) (human)): 120% | % activity (Rsk4(h) (human)): 125% | % activity (SAPK3(h) (human)): 97% | % activity (SRPK1(h) (human)): 93% | % activity (Src(1-530)(h) (human)): 75% | % activity (TBK1(h) (human)): 98% | % activity (Tie2(h) (human)): 53% | % activity (TrkB(h) (human)): 7% | % activity (ZAP-70(h) (human)): 58% | % activity (cKit(V560G)(h) (human)): 115% | % activity (mTOR(h) (human)): 110%

Substance: MMI-0100 (peptide)
% activity (AMPKa2(h) (human)): 121% | % activity (Ab1(H396P)(h) (human)): 130% | % activity (Ab1(T315I)(h) (human)): 98% | % activity (BTK(h) (human)): 112% | % activity (BrSK1(h) (human)): 100% | % activity (BrSK2(h) (human)): 129% | % activity (CDK6/cyclinD3(h) (human)): 103% | % activity [1]: 228% | % activity (CK1δ(h) (human)): 115% | % activity (CaMKIIβ(h) (human)): 58% | % activity (DYRK2(h) (human)): 99% | % activity (EGFR(L861Q)(h) (human)): 53% | % activity (EGFR(T790M)(h) (human)): 106% | % activity (EphB2(h) (human)): 68% | % activity (FGFR1(h) (human)): 120% | % activity (Flt3(D835Y)(h) (human)): 120% | % activity (HIPK1(h) (human)): 94% | % activity (Hck(h) activated (human)): 58% | % activity (IR(h) (human)): 112% | % activity (IR(h), activated (human)): 127% | % activity (IRR(h) (human)): 85% | % activity (JAK2(h) (human)): 89% | % activity (JNK3(h) (human)): 104% | % activity (KDR(h) (human)): 100% | % activity (LIMK1(h) (human)): 103% | % activity (MAPKAP-K3(h) (human)): 27% | % activity (MRCKα(h) (human)): 98% | % activity (MST1(h) (human)): 85% | % activity (MST3(h) (human)): 104% | % activity (Met(Y1248C)(h) (human)): 77% | % activity (PASK(h) (human)): 81% | % activity (PDGFRα(D842V)(h) (human)): 103% | % activity (PDGFRα(V561D)(h) (human)): 58% | % activity (PDGFRα(h) (human)): 104% | % activity (PKBβ(h) (human)): 284% | % activity (PKCβII(h) (human)): 102% | % activity (PKCγ(h) (human)): 94% | % activity (PKCδ(h) (human)): 100% | % activity (PKD2(h) (human)): 84% | % activity (PRAK(h) (human)): 159% | % activity (PRK2(h) (human)): 72% | % activity (PhKγ2(h) (human)): 62% | % activity (Pim-2(h) (human)): 117% | % activity (PrKX(h) (human)): 84% | % activity (ROCK-I(h) (human)): 99% | % activity (Ron(h) (human)): 117% | % activity (Rsk4(h) (human)): 99% | % activity (SAPK3(h) (human)): 106% | % activity (SRPK1(h) (human)): 69% | % activity (Src(1-530)(h) (human)): 95% | % activity (TBK1(h) (human)): 106% | % activity (Tie2(h) (human)): 28% | % activity (TrkB(h) (human)): 4% | % activity (ZAP-70(h) (human)): 79% | % activity (cKit(V560G)(h) (human)): 94% | % activity (mTOR(h) (human)): 102%

% activity (AMPKa2(h) (human)): 9% | % activity (Ab1(H396P)(h) (human)): 51% | % activity (Ab1(T315I)(h) (human)): 16% | % activity (BTK(h) (human)): 18% | % activity (BrSK1(h) (human)): 72% | % activity (BrSK2(h) (human)): 84% | % activity (CDK6/cyclinD3(h) (human)): 23% | % activity [1]: 6% | % activity (CK1δ(h) (human)): 78% | % activity (CaMKIIβ(h) (human)): 3% | % activity (DYRK2(h) (human)): 127% | % activity (EGFR(L861Q)(h) (human)): 15% | % activity (EGFR(T790M)(h) (human)): 70% | % activity (EphB2(h) (human)): 70% | % activity (FGFR1(h) (human)): 18% | % activity (Flt3(D835Y)(h) (human)): 65% | % activity (HIPK1(h) (human)): 47% | % activity (Hck(h) activated (human)): 67% | % activity (IR(h) (human)): 95% | % activity (IR(h), activated (human)): 90% | % activity (IRR(h) (human)): 10% | % activity (JAK2(h) (human)): 49% | % activity (JNK3(h) (human)): 171% | % activity (KDR(h) (human)): 15% | % activity (LIMK1(h) (human)): 87% | % activity (MAPKAP-K3(h) (human)): 9% | % activity (MRCKα(h) (human)): 5% | % activity (MST1(h) (human)): 3% | % activity (MST3(h) (human)): 4% | % activity (Met(Y1248C)(h) (human)): 73% | % activity (PASK(h) (human)): 9% | % activity (PDGFRα(D842V)(h) (human)): 170% | % activity (PDGFRα(V561D)(h) (human)): 146% | % activity (PDGFRα(h) (human)): 40% | % activity (PKBβ(h) (human)): 21% | % activity (PKCβII(h) (human)): 3% | % activity (PKCγ(h) (human)): 6% | % activity (PKCδ(h) (human)): 61% | % activity (PKD2(h) (human)): 10% | % activity (PRAK(h) (human)): 95% | % activity (PRK2(h) (human)): 7% | % activity (PhKγ2(h) (human)): 16% | % activity (Pim-2(h) (human)): 46% | % activity (PrKX(h) (human)): 57% | % activity (ROCK-I(h) (human)): 17% | % activity (Ron(h) (human)): 46% | % activity (Rsk4(h) (human)): 29% | % activity (SAPK3(h) (human)): 24% | % activity (SRPK1(h) (human)): 80% | % activity (Src(1-530)(h) (human)): 21% | % activity (TBK1(h) (human)): 16% | % activity (Tie2(h) (human)): 22% | % activity (TrkB(h) (human)): 12% | % activity (ZAP-70(h) (human)): 1% | % activity (cKit(V560G)(h) (human)): 198% | % activity (mTOR(h) (human)): 135%
Substance: MMI-0500 (peptide)
